The supplement of paper PMC11780869

System: Bacillus subtilis
Experiment: cleaved RNA product abundance (RNA/gDNA barcode ratio) relative to median wild-type variant (ratio to wild type); higher = more accumulation of the downstream cleavage product
Conditions: cleavage site: cggR-gapA (positions -7 to +36 mutated)
Method in brief: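 Reporter mRNAs based on truncated aprE or tetM carried barcoded, mutagenized RNase Y cleavage-site windows built from oligos with a 9% error rate and were integrated into the B. subtilis chromosome. Cultures grew in LB at 37°C from OD600 0.0003 to 0.3. Cleaved RNA was gel-selected, reverse transcribed and barcode-sequenced together with genomic DNA barcodes, and UMIs were collapsed. Cleaved product abundance is the per-construct ratio of RNA to gDNA barcodes, scaled to the median of constructs carrying the unmutated site.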

[1] = experiment (reporter, strain, medium): exp 4a: truncated aprE reporter, strain BJT201 with 2% xylose (RNase J1 expressed)
[2] = experiment (reporter, strain, medium): exp 2b: truncated aprE reporter, strain BJT200
[3] = experiment (reporter, strain, medium): exp 6: tetM reporter, strain 168

| Sequence | cleaved RNA product abundance [1] | cleaved RNA product abundance [2] | cleaved RNA product abundance [3] |
| --- | --- | --- | --- |
| ACAGACGAAGGAGCCGCAAAGAATATATTAAGGGATGAATAATCCCTCAATATAAATATCTCTCACTTATTTAAA | 0.375 |  |  |
| ACAGACGAAGGAGCCGCAAAGAATCTATTAAGGGATGAATAATCCCTCAATATAAATATCTCTCACTTATTTAAA | 0.689 |  |  |
| ACAGACGAAGGAGCCGCAAAGAATGTATTAAGGGATGAATAATCCCTCAATATAAATATCTCTCACTTATTTAAA | 0.695 |  |  |
| ACAGACGAAGGAGCCGCAAAGAATTAATTAAGGGATGAATAATCCCTCAATATAAATATCTCTCACTTATTTAAA | 0.36 | 0.257 |  |
| ACAGACGAAGGAGCCGCAAAGAATTCATTAAGGGATGAATAATCCCTCAATATAAATATCTCTCACTTATTTAAA | 0.23 | 0.196 |  |
| ACAGACGAAGGAGCCGCAAAGAATTGATTAAGGGATGAATAATCCCTCAATATAAATATCTCTCACTTATTTAAA | 0.439 |  |  |
| ACAGACGAAGGAGCCGCAAAGAATTTAATAAGGGATGAATAATCCCTCAATATAAATATCTCTCACTTATTTAAA | 0.309 | 0.25 |  |
| ACAGACGAAGGAGCCGCAAAGAATTTACTAAGGGATGAATAATCCCTCAATATAAATATCTCTCACTTATTTAAA | 0.31 | 0.251 |  |
| ACAGACGAAGGAGCCGCAAAGAATTTAGTAAGGGATGAATAATCCCTCAATATAAATATCTCTCACTTATTTAAA | 0.337 |  |  |
| ACAGACGAAGGAGCCGCAAAGAATTTATAAAGGGATGAATAATCCCTCAATATAAATATCTCTCACTTATTTAAA | 0.481 | 0.355 | 0.219 |
| ACAGACGAAGGAGCCGCAAAGAATTTATCAAGGGATGAATAATCCCTCAATATAAATATCTCTCACTTATTTAAA | 0.377 | 0.275 |  |
| ACAGACGAAGGAGCCGCAAAGAATTTATGAAGGGATGAATAATCCCTCAATATAAATATCTCTCACTTATTTAAA | 0.325 |  |  |
| ACAGACGAAGGAGCCGCAAAGAATTTATTAAAGGATGAAAAATCCCTCAATATAAATATCTCTCACTTATTTAAA | 0.197 |  |  |
| ACAGACGAAGGAGCCGCAAAGAATTTATTAAAGGATGAATAATCCCTCAATATAAATATCTCTCACTTATTTAAA | 0.213 | 0.171 |  |
| ACAGACGAAGGAGCCGCAAAGAATTTATTAACGGATGAATAATCCCTCAATATAAATATCTCTCACTTATTTAAA | 0.203 |  |  |
| ACAGACGAAGGAGCCGCAAAGAATTTATTAAGAGATGAATAATCCCTCAATATAAATATCTCTCACTTATTTAAA | 0.142 | 0.112 |  |
| ACAGACGAAGGAGCCGCAAAGAATTTATTAAGCGATGAATAATCCCTCAATATAAATATCTCTCACTTATTTAAA | 0.122 | 0.116 |  |
| ACAGACGAAGGAGCCGCAAAGAATTTATTAAGGAATGAATAATCCCTCAATATAAATATCTCTCACTTATTTAAA | 0.125 | 0.0897 |  |
| ACAGACGAAGGAGCCGCAAAGAATTTATTAAGGCATGAATAATCCCTCAATATAAATATCTCTCACTTATTTAAA | 0.111 | 0.1 |  |
| ACAGACGAAGGAGCCGCAAAGAATTTATTAAGGCATGAATAATCCCTCTATATAAATATCTCTCACTTATTTAAA | 0.107 |  |  |
| ACAGACGAAGGAGCCGCAAAGAATTTATTAAGGGAAGAATAATCCCTCAATATAAATATCTCTCACTTATTTAAA | 0.518 | 0.289 |  |
| ACAGACGAAGGAGCCGCAAAGAATTTATTAAGGGACGAATAATCCCTCAATATAAATATCTCTCACTTATTTAAA | 0.605 | 0.463 |  |
| ACAGACGAAGGAGCCGCAAAGAATTTATTAAGGGAGGAATAATCCCTCAATATAAATATCTCTCACTTATTTAAA | 0.459 |  |  |
| ACAGACGAAGGAGCCGCAAAGAATTTATTAAGGGATAAATAATCCCTCAATATAAATATCTCTCACTTATTTAAA | 0.595 | 0.767 |  |
| ACAGACGAAGGAGCCGCAAAGAATTTATTAAGGGATCAATAATCCCTCAATATAAATATCTCTCACTTATTTAAA | 0.73 |  |  |
| ACAGACGAAGGAGCCGCAAAGAATTTATTAAGGGATGAAAAATCCCTCAATATAAATATCTCTCACTTATTTAAA | 0.35 | 0.561 |  |

| Sequence | cleaved RNA product abundance [1] | cleaved RNA product abundance [2] | cleaved RNA product abundance [3] |
| --- | --- | --- | --- |
| ACAGACGAAGGAGCCGCAAAGAATTTATTAAGGGATGAACAATCCCTCAATATAAAAATCTCTCACTTATTTAAA | 0.8 |  |  |
| ACAGACGAAGGAGCCGCAAAGAATTTATTAAGGGATGAACAATCCCTCAATATAAATATCTCTCACTTATTTAAA | 0.451 |  |  |
| ACAGACGAAGGAGCCGCAAAGAATTTATTAAGGGATGAATAAACCCTCAATATAAATATCTCTCACTTATTTAAA | 0.292 | 0.322 |  |
| ACAGACGAAGGAGCCGCAAAGAATTTATTAAGGGATGAATAACCCCTCAATATAAATATCTCTCACTTATTTAAA | 0.452 |  |  |
| ACAGACGAAGGAGCCGCAAAGAATTTATTAAGGGATGAATAAGCCCTCAATATAAATATCTCTCACTTATTTAAA | 0.573 | 0.502 |  |
| ACAGACGAAGGAGCCGCAAAGAATTTATTAAGGGATGAATAATACCTCAATATAAATATCTCTCACTTATTTAAA | 0.177 | 0.105 |  |
| ACAGACGAAGGAGCCGCAAAGAATTTATTAAGGGATGAATAATCACTCAATATAAATATCTCTCACTTATTTAAA | 0.119 | 0.134 |  |
| ACAGACGAAGGAGCCGCAAAGAATTTATTAAGGGATGAATAATCCATCAATATAAATATCTCTCACTTATTTAAA | 0.269 | 0.204 |  |
| ACAGACGAAGGAGCCGCAAAGAATTTATTAAGGGATGAATAATCCCACAATATAAATATCTCTCACTTATTTAAA | 0.259 |  |  |
| ACAGACGAAGGAGCCGCAAAGAATTTATTAAGGGATGAATAATCCCCCAATATAAATATCTCTCACTTATTTAAA | 0.202 | 0.189 |  |
| ACAGACGAAGGAGCCGCAAAGAATTTATTAAGGGATGAATAATCCCTAAATATAAATATCTCTCACTTATTTAAA | 0.591 | 0.496 |  |
| ACAGACGAAGGAGCCGCAAAGAATTTATTAAGGGATGAATAATCCCTCAAAATAAATATCTCTCACTTATTTAAA | 0.273 | 0.198 |  |
| ACAGACGAAGGAGCCGCAAAGAATTTATTAAGGGATGAATAATCCCTCAACATAAATATCTCTCACTTATTTAAA | 0.365 | 0.298 |  |
| ACAGACGAAGGAGCCGCAAAGAATTTATTAAGGGATGAATAATCCCTCAATAAAAATATCTCTCACTTATTTAAA | 0.066 |  |  |
| ACAGACGAAGGAGCCGCAAAGAATTTATTAAGGGATGAATAATCCCTCAATAGAAATATCTCTCACTTATTTAAA | 0.0925 |  |  |
| ACAGACGAAGGAGCCGCAAAGAATTTATTAAGGGATGAATAATCCCTCAATATAAAAATCTCTCACTTATTTAAA | 0.532 |  |  |
| ACAGACGAAGGAGCCGCAAAGAATTTATTAAGGGATGAATAATCCCTCAATATAAACATCTCTCACTTATTTAAA | 0.683 | 0.291 |  |
| ACAGACGAAGGAGCCGCAAAGAATTTATTAAGGGATGAATAATCCCTCAATATAAATAACTCTCACTTATTTAAA | 0.544 |  |  |
| ACAGACGAAGGAGCCGCAAAGAATTTATTAAGGGATGAATAATCCCTCAATATAAATAGCTCTCACTTATTTAAA | 0.327 |  |  |
| ACAGACGAAGGAGCCGCAAAGAATTTATTAAGGGATGAATAATCCCTCAATATAAATATCTCTCACTTATTAAAG | 0.836 |  |  |
| ACAGACGAAGGAGCCGCAAAGAATTTATTAAGGGATGAATAATCCCTCAATATAAATATCTCTCACTTATTTAAA | 0.743 | 0.775 | 0.623 |
| ACAGACGAAGGAGCCGCAAAGAATTTATTAAGGGATGAATAATCCCTCAATATAAATATTTCTCACTTATTTAAA | 0.259 |  |  |
| ACAGACGAAGGAGCCGCAAAGAATTTATTAAGGGATGAATAATCCCTCAATATAAATGTCTCTCACTTATTTAAA | 0.282 |  |  |
| ACAGACGAAGGAGCCGCAAAGAATTTATTAAGGGATGAATAATCCCTCAATATAAGTATCTCTCACTTATTTAAA | 0.216 |  |  |
| ACAGACGAAGGAGCCGCAAAGAATTTATTAAGGGATGAATAATCCCTCAATATAATTATCTCTCACTTATTTAAA | 0.354 |  |  |
